Data published in publication PMC4600729.

What was measured:
[1] = target: taxol-stabilized microtubules (polymer of alpha/beta-tubulin), immobilized; assay: single-molecule TIRF microscopy; spiking experiment, crowded conditions: pM GFP-labelled motor mixed with 15-25 nM unlabelled motor; binding durations at plus ends of taxol-stabilized microtubules
[2] = target: taxol-stabilized microtubules (polymer of alpha/beta-tubulin), immobilized; assay: single-molecule TIRF microscopy; Kin5_18GFP landing on and dissociating from the lattice of an immobilized microtubule in 1 mM ADP; exponential fit of binding durations
[3] = target: taxol-stabilized microtubules (polymer of alpha/beta-tubulin), immobilized; assay: single-molecule TIRF microscopy; GFP-labelled motor (25 pM) in 1 mM ATP on immobilized taxol-stabilized microtubules; pause lifetimes at plus ends, exponential fit; BRB80 pH 6.8

taxol-stabilized microtubules (polymer of alpha/beta-tubulin), immobilized, sequence (P68363 whole entry, chain 1 of 2): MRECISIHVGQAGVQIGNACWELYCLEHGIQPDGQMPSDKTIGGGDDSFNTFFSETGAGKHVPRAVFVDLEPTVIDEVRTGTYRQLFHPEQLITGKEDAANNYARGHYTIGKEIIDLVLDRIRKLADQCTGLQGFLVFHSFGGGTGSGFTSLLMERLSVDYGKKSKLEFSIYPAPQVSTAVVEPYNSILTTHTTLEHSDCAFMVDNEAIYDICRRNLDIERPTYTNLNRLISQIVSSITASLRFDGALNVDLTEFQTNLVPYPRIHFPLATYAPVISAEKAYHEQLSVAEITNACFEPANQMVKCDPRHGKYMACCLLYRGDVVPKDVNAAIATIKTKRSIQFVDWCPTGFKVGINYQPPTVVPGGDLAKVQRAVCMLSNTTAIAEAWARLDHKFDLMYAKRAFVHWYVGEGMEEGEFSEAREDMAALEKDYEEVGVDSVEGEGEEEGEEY
taxol-stabilized microtubules (polymer of alpha/beta-tubulin), immobilized, sequence (A8K068 whole entry, chain 2 of 2, further chain): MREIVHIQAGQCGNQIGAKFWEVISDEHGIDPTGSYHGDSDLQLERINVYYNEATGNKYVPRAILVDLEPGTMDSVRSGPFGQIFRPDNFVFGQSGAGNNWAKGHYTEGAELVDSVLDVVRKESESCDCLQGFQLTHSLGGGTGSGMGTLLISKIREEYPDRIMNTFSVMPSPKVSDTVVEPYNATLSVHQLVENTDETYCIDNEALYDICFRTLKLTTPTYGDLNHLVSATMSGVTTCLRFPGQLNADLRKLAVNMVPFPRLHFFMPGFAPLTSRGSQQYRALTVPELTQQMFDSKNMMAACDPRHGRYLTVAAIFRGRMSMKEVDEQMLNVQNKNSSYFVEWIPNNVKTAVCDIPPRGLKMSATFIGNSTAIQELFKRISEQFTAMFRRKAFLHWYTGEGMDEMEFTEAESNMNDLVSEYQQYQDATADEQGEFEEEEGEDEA

end duration at plus ends under crowded conditions [1]: 2.26 s
mean binding duration on the microtubule lattice in 1 mM ADP [2]: 1.07 s
mean pause duration at plus ends [3]: 7 s
Substance: Kin5_18GFP (dimeric kinesin-5: motor domain and native 18-residue neck linker of Xenopus laevis Eg5 fused to the proximal coiled coil of Drosophila conventional kinesin heavy chain, GFP-tagged)
